Publication PMC9391581, “Mutated KLF4(K409Q) in meningioma binds STRs and activates FGF3 gene expression”

Experiments:
Conditions in all cases: protein: recombinant; tags: MBP; label: 32P 5' end
[1] = target: T1, MBP-KLF4 K409Q full length (human, UniProt O43474-1 1-479, K409Q); experiment: EMSA; stronger than FGF3-201; EMSA: 10 mM Tris-HCl pH 7.5, 53 mM NaCl, 1 mM DTT, 0.01% NP40, 5% glycerol, protein inhibitors, RT 30 min; footprinting: 110 ng to 3 ug protein, RT 30 min, 0.3
MBP-KLF4 K409Q DBD = MBP-KLF4 K409Q DBD (human, UniProt O43474-1 375-479, K409Q); experiment: as above
Sequence of MBP-KLF4 K409Q DBD (O43474 409-513 K443Q): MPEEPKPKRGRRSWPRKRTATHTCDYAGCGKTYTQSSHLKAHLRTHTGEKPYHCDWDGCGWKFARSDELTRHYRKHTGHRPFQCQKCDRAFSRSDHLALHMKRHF

MBP-KLF4 full length [2] = target: T2, MBP-KLF4 full length (human, UniProt O43474-1 1-479); experiment: EMSA; EMSA: 10 mM Tris-HCl pH 7.5, 53 mM NaCl, 1 mM DTT, 0.01% NP40, 5% glycerol, protein inhibitors, RT 30 min; footprinting: 110 ng to 3 ug protein, RT 30 min, 0.3
T2 sequence (O43474 other isoform, or with tags, fused parts or gaps): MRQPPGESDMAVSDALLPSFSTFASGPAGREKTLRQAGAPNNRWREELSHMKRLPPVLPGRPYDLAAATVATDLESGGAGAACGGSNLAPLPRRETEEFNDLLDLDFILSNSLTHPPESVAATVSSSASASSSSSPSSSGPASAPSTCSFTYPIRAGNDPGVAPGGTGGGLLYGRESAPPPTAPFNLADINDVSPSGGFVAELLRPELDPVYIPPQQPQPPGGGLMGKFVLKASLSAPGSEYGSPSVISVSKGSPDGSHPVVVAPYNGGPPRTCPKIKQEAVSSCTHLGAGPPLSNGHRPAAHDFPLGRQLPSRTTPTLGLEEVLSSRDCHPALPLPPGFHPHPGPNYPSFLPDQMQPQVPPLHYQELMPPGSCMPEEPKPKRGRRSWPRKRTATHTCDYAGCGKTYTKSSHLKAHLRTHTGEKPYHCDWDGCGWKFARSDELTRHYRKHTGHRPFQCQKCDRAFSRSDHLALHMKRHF

[3] = target: T1, MBP-KLF4 K409Q full length; experiment: as above
MBP-KLF4 DBD [4] = target: T3, MBP-KLF4 DBD (human, UniProt O43474-1 375-479); experiment: as above
T3 sequence (O43474 409-513): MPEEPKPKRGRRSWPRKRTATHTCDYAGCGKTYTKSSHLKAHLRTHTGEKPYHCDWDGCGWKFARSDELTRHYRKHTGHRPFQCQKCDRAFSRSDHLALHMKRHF

MBP-KLF4 full length [5] = target: T2, MBP-KLF4 full length; experiment: EMSA; same strong binding as TRH-122; EMSA: 10 mM Tris-HCl pH 7.5, 53 mM NaCl, 1 mM DTT, 0.01% NP40, 5% glycerol, protein inhibitors, RT 30 min; footprinting: 110 ng to 3 ug protein, RT 30 min, 0.3
MBP-KLF4 DBD [6] = target: T3, MBP-KLF4 DBD; experiment: as above

T1 sequence (O43474 other isoform, or with tags, fused parts or gaps K409Q | K409Q K409Q): as the sequence (O43474 other isoform, or with tags, fused parts or gaps) above, with K409Q counted along it

B1: FGF3-201M (dsDNA)
DNA 1: CCTTTAATGGGTGTGTGTCAGC
DNA 2: GCTGACACACACCCATTAAAGG
Question: Does B1 bind [1]?
Answer: binds

Question: Does B1 bind (MBP-KLF4 K409Q DBD)?
Answer: binds

B2: TRH-122 (dsDNA)
DNA 1: GAGCAGGCGGGCGGGGTCCCGC
DNA 2: GCGGGACCCCGCCCGCCTGCTC
Question: What does the source list for B2?
Answer: binding result (MBP-KLF4 full length [2]): binds; binding result [3]: binds; binding result (MBP-KLF4 DBD [4]): binds

B3: TRH-122M (dsDNA)
DNA 1: GAGCAGGCGGGCGGGGCCCCGC
DNA 2: GCGGGGCCCCGCCCGCCTGCTC
Question: Does B3 bind (MBP-KLF4 full length [5])?
Answer: binds

Question: Does B3 bind (MBP-KLF4 DBD [6])?
Answer: binds
